The source of these data is the supplement of paper PMC12042874.

± gives the uncertainty stated by the source.

A short description of the data set: amyloid nucleation score (Sup35N fusion, yeast selection) (log enrichment); library NNK3; higher = more nucleation; inactive = no reads after selection. An outline of the steps:
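In psi-negative yeast, Sup35N fusions carrying peptides of 20 random codons were induced with 100 μM copper sulfate for 24 hours. The cells then grew 7 days at 30°C on medium lacking adenine and uracil, and plasmid inserts from input and output were Illumina-sequenced, excluding sequences with under 100 input reads. Nucleation score is the DiMSum log enrichment of output over input reads, centred on the mode score of non-aggregating sequences.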
RYSYLGVCIKMSRKVKCVVT had an amyloid nucleation score of 0.086 ± 0.66.

For the substance CGVYPYPWVVMFTDCKMNRW, the amyloid nucleation score result is “inactive”. On to RVYKSV, for which the amyloid nucleation score result was “inactive”.

VIRQVCYYRLGEWLLGAR: the amyloid nucleation score result was “inactive”. In the case of SYGGYQFLYVNSDKLRV it was “inactive”; in that of TYMTYERVYL, “inactive”. In the case of AMEIRNVQELSIGPGNWMET, the amyloid nucleation score entry was “inactive”. In the case of LIWIVVGLSCYSTRL it was 1.09 ± 0.13; in that of CCLFADCDLRYFSNRTFFNC, “inactive”; in that of GPARTRWILPRVLGCTYRAA, “inactive”. Regarding RSRLCWED, the amyloid nucleation score was -0.029 ± 0.5. On to SFERSSSSST, for which the amyloid nucleation score entry was “inactive”. Take RVIKVGHMFKWSRAVGGGKT: the amyloid nucleation score was -0.514 ± 1.7. With LFVWRSMNRFFQVYVLWSAE, the amyloid nucleation score result was “inactive”. With DSWTAACAHSR, the amyloid nucleation score result is “inactive”.

Substance VQFMMYVGTGIGAVGSGVNY had an amyloid nucleation score of 1.53 ± 0.11.

Consider VKRADNSSSALRWYLNMYNL, for which the amyloid nucleation score entry was “inactive”. HEVAAPRRRHSSMLVAGSAG: the amyloid nucleation score result was “inactive”. On to NDLSDSMRVR, for which the amyloid nucleation score result is “inactive”. On to LGVLMLQSTRFAAWVSSLGR, for which the amyloid nucleation score result was “inactive”. In the case of YLRGVFLRYGG it was “inactive”; in that of TFSVRLSYLSRNAICDERVL, 0.33 ± 0.46. For the substance SVVLRYVLRYNRSACESRRR, the amyloid nucleation score is 0.441 ± 0.21.

As to HNPVG, the amyloid nucleation score was determined as 1.23 ± 0.08. ECSVSMCEKGITYRSVVERG: the amyloid nucleation score entry is “inactive”. On to FSVSDSFP, for which the amyloid nucleation score result is “inactive”.

In the case of WSAIVDSWCDSSRRVEIVVR, the amyloid nucleation score result is “inactive”. On to LVPVLNGVLSKLRSFNFHSG, for which the amyloid nucleation score entry was “inactive”. LLHTQMALGSLCVGYKIWLG: the amyloid nucleation score result was “inactive”. Take AVLVDSWRWERFYFMTTIKT: the amyloid nucleation score result is “inactive”. Substance YVTLYLDTGSCYLSLGCGAG registered an amyloid nucleation score of 0.758 ± 0.22. As for TNTFQSRNMFVNTALIYSP, the amyloid nucleation score entry is “inactive”. Turning to IFYVCRIIWCTERQVGKLGL, the amyloid nucleation score result was “inactive”. In turn, VTWNHSSCSERKRVRMSGWS returned an amyloid nucleation score of 0.801 ± 0.14. Turning to SCYDVFSFYPSPFCLTNSVA, the amyloid nucleation score result is “inactive”. Regarding QWFRKLFYLTSLEDAPQIPR, the amyloid nucleation score result was “inactive”.

For QAYAS, the amyloid nucleation score is -0.099 ± 0.96. Regarding AGWCYFASSVLVRTSWSQCA, the amyloid nucleation score entry is “inactive”. In turn, RPHRAWALAVRVASDVCQNS returned an amyloid nucleation score of 1.11 ± 0.11. CYCLLGVRLHVWIS: the amyloid nucleation score result is “inactive”. On to SVPDTLSDFISCPVNCTFLN, for which the amyloid nucleation score entry was “inactive”. The same measure for MEGFSMIIRDAWKFTCVVEW: “inactive”.

In the case of LWYFRFNFTAYNYFLWYDTS, the amyloid nucleation score result is “inactive”. The same measure for QMRTWSKIYICTKPFL: 1.07 ± 0.1; for HYSAREWLLLCIMVCDVVVW: “inactive”; for SRWSGFCIYRGN: “inactive”.

In the case of CGTCSDYGYHFGCTDRGVDC, the amyloid nucleation score result was “inactive”. The substance MRLMVWESLR yielded an amyloid nucleation score of 1.6 ± 0.097.

In the case of EIGFYCPSGAGGHRKDRVLR, the amyloid nucleation score result is “inactive”. In the case of CPFPRLSICVACNEYDNQLS, the amyloid nucleation score entry is “inactive”. As to RVRIKTWYRMMGYMLCWCEL, the amyloid nucleation score result was “inactive”.

As for CSMPWLRSSTGGGVLLIEKS, the amyloid nucleation score entry is “inactive”.

Take VLDAIVATDRL: the amyloid nucleation score entry is “inactive”.
